The target of series [1] is transferrin receptor (TfR, CD71), native on human cells (Homo sapiens, UniProt P02786 P02786:1-760). Kind of series: flow; apparent, Jurkat cells, RPMI 10% FBS, tRNA and ssDNA, 37 C 1 h; no staining of ATP-arrested cells. To be noted: chain copies: 2 inferred; label: 32P (filter), AF488 or Atto647N (cells); stem with 12-nt asymmetric bulge, C-rich bulge, GNRA tetraloop.
Description: Following a 1 hour incubation at 37° C., the cells were washed twice with 1 mL FACS buffer and then resuspended in 500 μL FACS buffer containing 7AAD to exclude dead cells in the analysis. The apparent binding constant was determined from a fit of the mean fluorescence versus the aptamer concentration using the Eq. 1 above.
For series [2], the target named is transferrin receptor (TfR, CD71), recombinant from pAcGP67A-TfR (Homo sapiens, UniProt P02786 P02786:121-760). Kind of series: filter; DPBS with Mg2+ and Ca2+, room temperature, 30 min. Particulars: tags: His-tag; expressed in Sf9 insect cells, plasmid pAcGP67A-TfR (Addgene); chain copies: 2 inferred; label: 32P (filter), AF488 or Atto647N (cells); stem with 12-nt asymmetric bulge, C-rich bulge, GNRA tetraloop.
Chain of transferrin receptor (TfR, CD71), recombinant from pAcGP67A-TfR (P02786 121-760, one chain of several): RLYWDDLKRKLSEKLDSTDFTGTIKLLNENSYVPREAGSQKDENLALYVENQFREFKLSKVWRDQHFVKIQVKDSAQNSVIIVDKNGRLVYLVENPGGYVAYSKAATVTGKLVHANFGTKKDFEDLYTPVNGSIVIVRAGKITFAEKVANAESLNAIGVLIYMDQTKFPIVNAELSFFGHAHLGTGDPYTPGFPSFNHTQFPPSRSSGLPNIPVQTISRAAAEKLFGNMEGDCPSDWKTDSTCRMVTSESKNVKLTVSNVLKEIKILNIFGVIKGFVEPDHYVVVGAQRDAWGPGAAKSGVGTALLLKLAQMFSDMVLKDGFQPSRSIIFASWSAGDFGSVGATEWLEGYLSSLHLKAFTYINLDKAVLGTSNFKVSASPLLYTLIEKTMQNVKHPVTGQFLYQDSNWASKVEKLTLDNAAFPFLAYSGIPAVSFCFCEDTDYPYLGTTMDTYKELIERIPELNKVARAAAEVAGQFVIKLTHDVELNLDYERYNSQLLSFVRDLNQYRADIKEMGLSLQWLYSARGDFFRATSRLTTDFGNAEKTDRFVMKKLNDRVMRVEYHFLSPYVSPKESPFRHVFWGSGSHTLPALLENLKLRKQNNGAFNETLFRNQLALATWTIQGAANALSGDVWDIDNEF

Chain of transferrin receptor (TfR, CD71), native on human cells (P02786 whole entry, one chain of several): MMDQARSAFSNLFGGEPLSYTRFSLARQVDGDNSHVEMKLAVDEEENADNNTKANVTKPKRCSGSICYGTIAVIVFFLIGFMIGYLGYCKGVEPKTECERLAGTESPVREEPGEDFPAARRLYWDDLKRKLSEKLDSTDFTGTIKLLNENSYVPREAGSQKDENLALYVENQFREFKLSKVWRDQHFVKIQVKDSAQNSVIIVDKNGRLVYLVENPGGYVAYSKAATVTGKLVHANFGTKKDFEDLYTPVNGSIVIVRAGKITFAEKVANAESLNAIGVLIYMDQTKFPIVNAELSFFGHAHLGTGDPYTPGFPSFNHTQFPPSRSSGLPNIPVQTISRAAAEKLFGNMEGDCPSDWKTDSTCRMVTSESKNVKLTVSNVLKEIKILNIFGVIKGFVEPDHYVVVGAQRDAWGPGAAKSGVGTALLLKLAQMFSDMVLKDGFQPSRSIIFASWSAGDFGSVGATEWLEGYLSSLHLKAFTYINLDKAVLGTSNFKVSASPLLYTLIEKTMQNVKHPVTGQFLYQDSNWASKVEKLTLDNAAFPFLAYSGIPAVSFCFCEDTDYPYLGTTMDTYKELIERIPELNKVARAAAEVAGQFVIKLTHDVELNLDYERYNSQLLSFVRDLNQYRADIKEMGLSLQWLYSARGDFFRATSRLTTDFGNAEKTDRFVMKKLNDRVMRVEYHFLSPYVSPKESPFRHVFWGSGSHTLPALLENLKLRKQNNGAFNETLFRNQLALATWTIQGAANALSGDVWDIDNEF

As for GGGGGAUCAAUCCAAGGGACCCGGAAACGCUCCCUUACACCCC (ssRNA, 2'-F pyrimidines; 3' idT; 5' thiol C6) [c2.min], the Kd was 0.104 µM in series [1] and 0.102 µM in series [2].

These data come from US20150125516, “TRANSFERRIN RECEPTOR APTAMERS AND APTAMER-TARGETED DELIVERY” (ALBERT EINSTEIN COLLEGE OF MEDICINE OF YESHIVA UNIVERSITY, published 2015).
